# Measured values: doi:10.1101/284836
# Experiments:
# [1] = test system: EcCRP-HIS (Escherichia coli); test: EMSA
# [2] = test system: HiCRP-HIS (Haemophilus influenzae); test: EMSA
substance,measurement,setting,value
"pilA-N promoter (CRP-N), Fig. 3 bait",binding signal,[1],77 % shifted
same,binding signal,[2],6 % shifted
"pilA promoter (CRP-S), Fig. 3 bait",binding signal,[1],30 % shifted
